Experimental data published in patent US20240124531A1, “COMPOUNDS AND METHODS FOR EXTENDING HALF LIFE OF BIOMOLECULES” (AFFILOGIC, priority 2021, published 2024).

Assays:
[1] = fluorescein alone, single i.v. injection, analysis of literature data (Chahal et al.); cited from earlier work
Rabbit serum albumin = biological target: T1, Rabbit serum albumin (Rabbit, UniProt P49065 25-608); experiment: biolayer interferometry, cross reactivity on albumins of different species; legend: '-' symbol refers to an absence of detectable binding
T1 construct: also called RabSA; RabSa

[2] = biological target: T2, human serum albumin domain III (aa381-585) (human, UniProt P02768 405-609); experiment: biolayer interferometry, His-tagged F06 on Ni-NTA biosensors, albumin domain at 250 nM, response at 180 s
T2 construct: range 381-585; The residue numbers probably count on mature albumin (585 residues)
Text: (§1) The albumin is described as having three domains, dubbed domain I, II and III. Interaction of the albumin with the FcRn receptor involves domain I and III. Domain I (aa1-197), domain II (aa189-385), and domain III (aa381-585) and Domain I-II (aa1-385) were obtained from Albumin Bioscience. Interaction of the anti-albumin Nanofitins with the different domains was investigated by biolayer interferometry according to the following procedure. […] The sensors were then allowed to equilibrate for 60 sec in protein free blocking buffer (Thermo Scientific) supplemented with 0.002% of tween20.

[3] = biological target: T3, human serum albumin Domain I (aa1-197) (human, UniProt P02768 25-221); experiment: as above
T3 construct: range 1-197; Domain III ends at 585, so they probably count on mature albumin (585 residues) and not on the precursor entry
Text: as §1

human serum albumin = biological target: T4, human serum albumin (human, UniProt P02768 25-609, biotinylated (sites not given) in the biolayer interferometry of Example 1); experiment: biolayer interferometry (octet red96); biotinylated HSA on streptavidin biosensors, Nanofitin 15.6-1000 nM
T4 construct: Biotinylated HSA immobilised on streptavidin biosensors; also called HSA

Rat serum albumin = biological target: T5, Rat serum albumin (Rat, UniProt P02770 25-608); experiment: biolayer interferometry, cross reactivity pattern (graded strength of binding)
T5 construct: also called RSA

[4] = biological target: T6, Cynomolgus monkey serum albumin (Cynomolgus monkey, UniProt A2V9Z4 25-608); experiment: as above
T6 construct: also called CSA

Mouse serum albumin = biological target: T7, Mouse serum albumin (Mouse, UniProt P07724 25-608); experiment: as above
T7 construct: also called MSA
T7 sequence (P07724 25-608 limits assumed): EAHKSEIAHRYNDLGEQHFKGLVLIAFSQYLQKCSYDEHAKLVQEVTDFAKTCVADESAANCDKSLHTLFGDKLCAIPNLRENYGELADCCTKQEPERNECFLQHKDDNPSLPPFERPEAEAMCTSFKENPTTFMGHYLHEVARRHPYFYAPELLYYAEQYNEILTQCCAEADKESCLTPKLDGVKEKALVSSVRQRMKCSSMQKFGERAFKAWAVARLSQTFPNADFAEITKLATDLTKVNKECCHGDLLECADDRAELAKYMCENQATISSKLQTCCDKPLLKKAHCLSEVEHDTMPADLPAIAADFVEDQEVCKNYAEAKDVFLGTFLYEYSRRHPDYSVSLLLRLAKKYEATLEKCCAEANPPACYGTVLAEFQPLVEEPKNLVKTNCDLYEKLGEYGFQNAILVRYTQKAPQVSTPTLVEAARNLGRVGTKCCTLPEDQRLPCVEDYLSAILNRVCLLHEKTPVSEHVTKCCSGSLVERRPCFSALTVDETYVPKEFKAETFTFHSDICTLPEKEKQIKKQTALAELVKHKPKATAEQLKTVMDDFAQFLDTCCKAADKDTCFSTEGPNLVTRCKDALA

T1 sequence (P49065 25-608 limits assumed): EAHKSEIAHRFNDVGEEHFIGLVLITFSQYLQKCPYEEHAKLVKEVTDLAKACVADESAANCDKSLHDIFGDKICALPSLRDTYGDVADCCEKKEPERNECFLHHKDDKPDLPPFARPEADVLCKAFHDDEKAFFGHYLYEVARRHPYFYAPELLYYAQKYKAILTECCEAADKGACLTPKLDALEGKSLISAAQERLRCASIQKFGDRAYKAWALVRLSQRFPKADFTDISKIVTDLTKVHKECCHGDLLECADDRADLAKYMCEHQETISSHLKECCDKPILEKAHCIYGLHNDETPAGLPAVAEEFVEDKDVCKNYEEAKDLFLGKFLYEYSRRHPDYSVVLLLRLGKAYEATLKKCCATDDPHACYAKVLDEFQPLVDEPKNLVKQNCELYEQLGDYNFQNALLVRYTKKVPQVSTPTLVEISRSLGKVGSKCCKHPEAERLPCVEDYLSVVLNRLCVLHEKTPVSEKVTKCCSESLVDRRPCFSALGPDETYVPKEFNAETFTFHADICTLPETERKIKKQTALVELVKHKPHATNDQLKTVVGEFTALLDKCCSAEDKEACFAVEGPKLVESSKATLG
T5 sequence (P02770 25-608 limits assumed): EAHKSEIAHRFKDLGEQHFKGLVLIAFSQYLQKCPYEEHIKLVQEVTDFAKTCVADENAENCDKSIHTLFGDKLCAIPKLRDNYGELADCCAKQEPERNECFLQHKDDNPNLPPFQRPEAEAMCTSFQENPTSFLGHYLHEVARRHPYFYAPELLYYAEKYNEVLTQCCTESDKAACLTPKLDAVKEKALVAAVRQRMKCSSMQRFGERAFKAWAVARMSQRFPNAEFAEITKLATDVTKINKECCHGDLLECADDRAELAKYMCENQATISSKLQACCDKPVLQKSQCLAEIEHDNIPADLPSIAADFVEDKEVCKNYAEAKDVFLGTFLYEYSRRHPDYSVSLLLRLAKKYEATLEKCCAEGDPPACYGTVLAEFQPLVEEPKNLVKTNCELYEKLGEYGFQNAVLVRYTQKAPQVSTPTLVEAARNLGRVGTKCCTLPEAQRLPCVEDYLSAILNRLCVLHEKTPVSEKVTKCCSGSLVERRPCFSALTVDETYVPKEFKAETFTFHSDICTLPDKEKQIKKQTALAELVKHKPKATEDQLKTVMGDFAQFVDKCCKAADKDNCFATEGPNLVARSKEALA
T6 sequence (A2V9Z4 25-608 limits assumed): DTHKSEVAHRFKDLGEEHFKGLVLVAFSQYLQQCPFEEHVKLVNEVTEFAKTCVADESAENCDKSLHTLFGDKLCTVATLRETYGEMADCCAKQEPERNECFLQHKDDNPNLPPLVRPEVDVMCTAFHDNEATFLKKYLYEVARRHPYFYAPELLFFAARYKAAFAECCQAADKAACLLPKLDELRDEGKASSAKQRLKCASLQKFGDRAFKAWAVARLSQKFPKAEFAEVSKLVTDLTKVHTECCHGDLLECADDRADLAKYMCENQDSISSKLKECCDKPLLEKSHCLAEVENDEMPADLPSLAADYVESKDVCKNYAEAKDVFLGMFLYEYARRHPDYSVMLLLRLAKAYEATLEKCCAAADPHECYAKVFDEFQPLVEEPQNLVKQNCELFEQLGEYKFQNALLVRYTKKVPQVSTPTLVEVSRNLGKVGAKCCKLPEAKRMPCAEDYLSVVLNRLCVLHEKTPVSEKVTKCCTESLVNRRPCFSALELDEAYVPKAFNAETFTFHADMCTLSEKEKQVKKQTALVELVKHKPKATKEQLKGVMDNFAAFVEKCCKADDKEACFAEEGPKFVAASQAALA

binding result (Rabbit serum albumin) | binding result [2] | binding result [3] | Kd (human serum albumin) | koff (human serum albumin) | binding result (Rat serum albumin) | binding result [4] | binding result (Mouse serum albumin) | Molecule | t1/2 in mouse serum [1]
 |  |  |  |  |  |  |  | O=C1OC2(c3ccc(O)cc3Oc3cc(O)ccc32)c2ccccc21 [Fluorescein] | about 8 min
no binding | no binding (tested: 250 nM) | no binding (tested: 250 nM) | 8.38 nM | 0.000304 s⁻¹ |  |  |  | Nanofitin F06 (designed binder, also called anti-albumin Nanofitin) VKVKFVFSGEEKEVETSKIKWVLRWGKAVGFKYDDQGKIGYGFVAEKDAPKELLDMLARAEREK | 
no binding |  |  |  |  | binds | binds | binds | Nanofitin B11 (designed binder, Variant of Sac7d; also called anti-albumin Nanofitin) VKVKFWPRGEEKVVDTSKIAWVLRADKTVMFKYDDNGKKGYGVVLEKDAPKELLDMLARAEREK | 
